From US20050064507

How the values were obtained:
[1] = biological target: T1, ARHGAP4 peptide PLRKSSLKKGGR (SEQ ID NO:193) (not fully specified)
T1 chain: PLRKSSLKKGGR

[2] = biological target: T2, IDN3 peptide VRRRRSQRISQR (SEQ ID NO:172) (not fully specified)
T2 chain: VRRRRSQRISQR

[3] = biological target: T3, SHP-1 peptide DKEKSKGSLKRK (SEQ ID NO:209) (not fully specified)
T3 chain: DKEKSKGSLKRK

[4] = biological target: T4, CXCR4 peptide VSRGSSLKILSK (SEQ ID NO:212) (not fully specified)
T4 chain: VSRGSSLKILSK

[5] = biological target: T5, GRK6 peptide GNRKGKSKKWRQ (SEQ ID NO:192) (not fully specified)
T5 chain: GNRKGKSKKWRQ

[6] = biological target: T6, gap-43 peptide SFRGHITRKKLK (SEQ ID NO:207) (not fully specified)
T6 chain: SFRGHITRKKLK

[7] = biological target: T7, NPAT peptide FRASSRSTTK (SEQ ID NO:184) (not fully specified)
T7 chain: FRASSRSTTK

[8] = biological target: T8, ribosomal protein S6 peptide TGERKRKSVRG (SEQ ID NO:181) (not fully specified)
T8 chain: TGERKRKSVRG

[9] = biological target: T9, WNK1 peptide KRHYRKSVRSRS (SEQ ID NO:179) (not fully specified)
T9 chain: KRHYRKSVRSRS

[10] = biological target: T10, CDC2L5 peptide RHSRSRSRHRLS (SEQ ID NO:213) (not fully specified)
T10 chain: RHSRSRSRHRLS

[11] = biological target: T11, CDC2L5 peptide SRRRSPSYSRHS (SEQ ID NO:214) (not fully specified)
T11 chain: SRRRSPSYSRHS

B1: PKC-theta (protein)
chain: MSPFLRIGLSNFDCGSCQSCQGEAVNPYCAVLVKEYVESENGQMYIQKKPTMYPPWDSTFDAHINKGRVMQIIVKGKNVDLISETTVELYSLAERCRKNNGKTEIWLELKPQGRMLMNARYFLEMSDTKDMNEFETEGFFALHQRRGAIKQAKVHHVKCHEFTATFFPQPTFCSVCHEFVWGLNKQGYQCRQCNAAIHKKCIDKVIAKCTGSAINSRETMFHKERFKIDMPHRFKVYNYKSPTFCEHCGTLLWGLARQGLKCDACGMNVHHRCQTKVANLCGINQKLMAEALAMIESTQQARCLRDTEQIFREGPVEIGLPCSIKNEARPPCLPTPGKREPQGISWESPLDEVDKMCHLPEPELNKERPSLQIKLKIEDFILHKMLGKGSFGKVFLAEFKKTNQFFAIKALKKDVVLMDDDVECTMVEKRVLSLAWEHPFLTHMFCTFQTKENLFFVMEYLNGGDLMYHIQSCHKFDLSRATFYAAEIILGLQFLHSKGIVYRDLKLDNILLDKDGHIKIADFGMCKENMLGDAKTNTFCGTPDYIAPEILLGQKYNHSVDWWSFGVLLYEMLIGQSPFHGQDEEELFHSIRMDNPFYPRWLEKEAKDLLVKLFVREPEKRLGVRGDIRQHPLFREINWEELERKEIDPPFRPKVKSPFDCSNFDKEFLNEKPRLSFADRALINSMDQNMFRNFSFMNPGMERLIS
**Q.** Which results are given for B1?
**A.** in vitro phosphorylation (% of best substrate) [1]: 35; in vitro phosphorylation (% of best substrate) [2]: 86; in vitro phosphorylation (% of best substrate) [3]: 17; in vitro phosphorylation (% of best substrate) [4]: 13; in vitro phosphorylation (% of best substrate) [5]: 35; in vitro phosphorylation (% of best substrate) [6]: 18; in vitro phosphorylation (% of best substrate) [7]: 54; in vitro phosphorylation (% of best substrate) [8]: 62; in vitro phosphorylation (% of best substrate) [9]: 65; in vitro phosphorylation (% of best substrate) [10]: 13; in vitro phosphorylation (% of best substrate) [11]: 13
